Results reported in patent publication US20260001954A1 (Genentech, published 2026).

How the values were obtained:
[1] = target: CD3 on T cells of human peripheral blood mononuclear cells (PBMCs) (human, UniProt P07766 23-207); assay: cell-based or functional assay
[2] = target: T1, CD3 (cluster of differentiation 3) (UniProt P07766 23-126); assay: method not stated; monovalent KD used to calculate CD3 receptor occupancy; monovalent KD, used for CD3 receptor occupancy
T1 construct: also called CD3 antigen
T1 sequence (P07766 23-126): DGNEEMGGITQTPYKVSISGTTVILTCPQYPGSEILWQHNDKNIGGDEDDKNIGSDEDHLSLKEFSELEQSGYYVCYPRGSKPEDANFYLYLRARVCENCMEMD

CD3 on T cells of human peripheral blood mononuclear cells (PBMCs), sequence (P07766 23-207): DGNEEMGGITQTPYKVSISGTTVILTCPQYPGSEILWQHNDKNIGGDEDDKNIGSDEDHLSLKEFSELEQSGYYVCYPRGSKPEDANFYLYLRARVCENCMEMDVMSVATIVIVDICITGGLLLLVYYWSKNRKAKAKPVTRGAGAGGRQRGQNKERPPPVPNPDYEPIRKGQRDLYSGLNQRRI

B1: cevostamab (bispecific antibody, human IgG1, kappa, N297G)
heavy 1: not shown
light 1: DIQMTQSPSSLSASVGDRVTITCKASQDVRNLVVWFQQKPGKAPKLLIYSGSYRYSGVPSRFSGSGSGTDFTLTISSLQPEDFATYYCQQHYSPPYTFGQGTKVEIKRTVAAPSVFIFPPSDEQLKSGTASVVCLLNNFYPREAKVQWKVDNALQSGNSQESVTEQDSKDSTYSLSSTLTLSKADYEKHKVYACEVTHQGLSSPVTKSFNRGEC
heavy 2: EVQLVQSGAEVKKPGASVKVSCKASGFTFTSYYIHWVRQAPGQGLEWIGWIYPENDNTKYNEKFKDRVTITADTSTSTAYLELSSLRSEDTAVYYCARDGYSRYYFDYWGQGTLVTVSSASTKGPSVFPLAPSSKSTSGGTAALGCLVKDYFPEPVTVSWNSGALTSGVHTFPAVLQSSGLYSLSSVVTVPSSSLGTQTYICNVNHKPSNTKVDKKVEPKSCDKTHTCPPCPAPELLGGPSVFLFPPKPKDTLMISRTPEVTCVVVDVSHEDPEVKFNWYVDGVEVHNAKTKPREEQYGSTYRVVSVLTVLHQDWLNGKEYKCKVSNKALPAPIEKTISKAKGQPREPQVYTLPPSREEMTKNQVSLSCAVKGFYPSDIAVEWESNGQPENNYKTTPPVLDSDGSFFLVSKLTVDKSRWQQGNVFSCSVMHEALHNHYTQKSLSLSPGK
light 2: not shown
notes: Humanized full-length non-glycosylated IgG1 kappa, knobs-into-holes; also called BFCR4350A; RO7187797
[1]
  50% effective concentration (EC50) for T-cell activation in the in vitro human PBMC: MOLP-2 co-culture: 0.0588 µg/mL
[2]
  Kd: 2.6 nM
